Measured values as given in publication PMC7150849.

Assays:
[1] = target: CHR-derived peptide C34 of HIV-1 92RW020 gp41 with the N126K mutation (HIV-1 92RW020); experiment: circular dichroism spectroscopy
[2] = target: CHR-derived peptide C34 of HIV-1 92RW020 gp41 with the N126K mutation (HIV-1 92RW020); experiment: ITC
[3] = target: CHR-derived peptide C34 of HIV-1 92RW020 gp41 (HIV-1 92RW020); experiment: ITC
[4] = target: CHR-derived peptide C34 of HIV-1 JRFL gp41 with the N126K mutation (HIV-1 JRFL); experiment: circular dichroism spectroscopy
[5] = target: CHR-derived peptide C34 of HIV-1 JRFL gp41 (HIV-1 JRFL); experiment: ITC
[6] = target: CHR-derived peptide C34 of HIV-1 JRFL gp41 with the N126K mutation (HIV-1 JRFL); experiment: ITC
[7] = target: CHR-derived peptide C34 of HIV-1 NL4-3 gp41 with the N126K mutation (HIV-1 NL4-3); experiment: circular dichroism spectroscopy
[8] = target: CHR-derived peptide C34 of HIV-1 NL4-3 gp41 with the N126K mutation (HIV-1 NL4-3); experiment: ITC

Substance: NHR-derived peptide N36 of HIV-1 92RW020 gp41
- Tm of the complex [1]: 62.7 °C
- Ka [2]: 1.3e+06 M⁻¹
- dH [2]: -55 kcal/mol
- stoichiometry N [2]: 1 Site
- Ka [3]: 940000 M⁻¹
- dH [3]: -49 kcal/mol
- stoichiometry N [3]: 1.4 Site

Substance: NHR-derived peptide N36 of HIV-1 JRFL gp41
- Tm of the complex [4]: 62.7 °C
- Ka [5]: 430000 M⁻¹
- dH [5]: -44 kcal/mol
- stoichiometry N [5]: 1.3 Site
- Ka [6]: 1.2e+06 M⁻¹
- dH [6]: -35 kcal/mol
- stoichiometry N [6]: 1.4 Site

Substance: NHR-derived peptide N36 of HIV-1 NL4-3 gp41 (from UniProt P04578 546-581)
- Tm of the complex [7]: 68.5 °C
- Ka [8]: 1.9e+06 M⁻¹
- dH [8]: -38 kcal/mol
- stoichiometry N [8]: 1.2 Site
